Columns and labels:
HaCat cell extract preys = experiment: PDZ-AP-MS, biotinylated MBP-PDZ baits; type: binding, human; conditions: for Difference log2: enrichment of prey; for Ratio SNX27/MBP: bait SNX27 PDZ
Method: (§1) For PDZ-AP-MS experiments, PDZ domains were cloned as His6-AviTag-MBP-PDZ constructs. For co-expression with BirA, E. coli BL21(DE3) cells were co-transformed with His6-AviTag-MBP, or His6-AviTag-MBP-PDZ-coding and PET21a-BirA (Addgene #20857) plasmids. Simultaneously to IPTG induction, 50 µM biotin was added to the media. After cell harvesting, the lysis buffer was also supplemented with 50 µM biotin. Otherwise, expression and double affinity purification was identical as previously described in details.
(§2) For PBM-AP-MS experiments, 30 μl streptavidin resin was mixed with biotin or peptide at 50–60 μM concentration in 6–6.5 resin volume for 60 min to achieve resin saturation. For PDZ-AP-MS experiments, 30 μl streptavidin resin was mixed with biotinylated MBP or MBP-PDZ at 40-50 μM concentration in >1000× resin volume for 60 min to achieve resin saturation. After saturation, resins were washed a single time (ten resin volume, holdup buffer), and were depleted with biotin (1 mM biotin, 5–10 resin volume, 10 min). Finally, resins were washed two times. 0.5 ml 2 mg/ml cell lysate was added to the dry resin (1 mg total input) and were incubated at 4 °C for 2 h. Then, the beads were washed three times with 10 resin volume buffer containing: 50 mM TRIS pH 8.5, 150 mM NaCl, 1% TritonX-100, 10× complete EDTA-free protease inhibitor cocktail, 2 mM EDTA, 1 mM TCEP. Then, the beads were washed two times with ten resin volume buffer containing: 50 mM TRIS pH 8.5, 150 mM NaCl, 1 mM TCEP. Finally, captured protein was eluted from the resin in two steps and the eluted fractions were pooled. For each elution the beads were incubated for 30 min with three resin volume buffer containing: 20 mM TRIS pH8.5, 100 mM NaCl, 500 μM TCEP, 8 M Urea. Between each step, the beads were separated by mild centrifugation and the supernatant was removed by gentle pipetting.
(§3) The samples were precipitated with TCA 20% overnight at 4 °C and centrifuged at 14,000 rpm for 10 min at 4 °C. The protein pellets were washed twice with 1 mL cold acetone and air dried. The protein extracts were solubilized in urea 8 M, reduced with 5 mM TCEP for 30 min, and alkylated with 10 mM iodoacetamide for 30 min in the dark. Double digestion was performed at 37 °C with 500 ng endoproteinase Lys-C for 4 h, followed by fourfold dilution and an overnight digestion with 500 ng trypsin. Peptide mixtures were then desalted on C18 spin-column and dried on Speed-Vacuum.
(§4) Samples were analyzed using an Ultimate 3000 nano-RSLC (Thermo Scientific, San Jose California) coupled in line with a LTQ-Orbitrap ELITE mass spectrometer via a nano-electrospray ionization source (Thermo Scientific, San Jose California). Peptide mixtures were injected in 0.1% TFA on a C18 Acclaim PepMap100 trap-column (75 µm ID × 2 cm, 3 µm, 100 Å, Thermo Fisher Scientific) for 3 min at 5 µL/min with 2% ACN, 0.1% FA in H2O and then separated on a C18 Accucore nano-column (75 µm ID × 50 cm, 2.6 µm, 150 Å, Thermo Fisher Scientific) at 220 nl/min and 38 °C with a 90 min linear gradient from 5% to 30% buffer B (A: 0.1% FA in H2O/B: 99% ACN, 0.1% FA in H2O), regeneration at 5% B. The mass spectrometer was operated in positive ionization mode, in data-dependent mode with survey scans from m/z 350–1500 acquired in the Orbitrap at a resolution of 120,000 at m/z 400. The 20 most intense peaks from survey scans were selected for further fragmentation in the Linear Ion Trap with an isolation window of 2.0 Da and were fragmented by CID with normalized collision energy of 35%. (TOP20CID method) Unassigned and single charged states were excluded from fragmentation. The Ion Target Value for the survey scans (in the Orbitrap) and the MS2 mode (in the Linear Ion Trap) were set to 1E6 and 5E3 respectively and the maximum injection time was set to 100 ms for both scan modes. Dynamic exclusion was set to 20 s after one repeat count with mass width at ±10 ppm. […]

HeLa cell extract preys = experiment: PDZ-AP-MS, biotinylated MBP-PDZ baits; type: binding, human; conditions: for Ratio: fold enrichment of prey; for Difference: log2 enrichment of prey
Method: as §1, §2, §3, §4

[1] = bait SCRIB_2 PDZ (biotinylated MBP-PDZ) vs MBP control
[2] = bait SCRIB_2 PDZ vs MBP control

B1: CAV1 (protein, UniProt Q03135 2-178, looked up)
Caveolin-1: SGGKYVDSEGHLYTVPIREQGNIYKPNNKAMADELSEKQVYDAHTKEIDLVNRDPKHLNDDVVKIDFEDVIAEPEGTHSFDGIWKASFTTFTVTKYWFYRLLSALFGIPMALIWGIYFAILSFLHIWAVVPCIKSFLIEIQCISRVYSIYVHTVCDPLFEAVGKIFSNVRINLQKEI
**Q.** With B1 as the molecule, how does the “Difference log2” value (HaCat cell extract preys; bait SNX27 PDZ vs MBP) read?
**A.** Its value is 8.5897.

**Q.** And the “Ratio SNX27/MBP” value (HaCat cell extract preys; fold change of prey)?
**A.** Its value is 385.263.

B2: HSPD1 (protein, UniProt P10809 27-573, looked up)
60 kDa heat shock protein, …: AKDVKFGADARALMLQGVDLLADAVAVTMGPKGRTVIIEQSWGSPKVTKDGVTVAKSIDLKDKYKNIGAKLVQDVANNTNEEAGDGTTTATVLARSIAKEGFEKISKGANPVEIRRGVMLAVDAVIAELKKQSKPVTTPEEIAQVATISANGDKEIGNIISDAMKKVGRKGVITVKDGKTLNDELEIIEGMKFDRGYISPYFINTSKGQKCEFQDAYVLLSEKKISSIQSIVPALEIANAHRKPLVIIAEDVDGEALSTLVLNRLKVGLQVVAVKAPGFGDNRKNQLKDMAIATGGAVFGEEGLTLNLEDVQPHDLGKVGEVIVTKDDAMLLKGKGDKAQIEKRIQEIIEQLDVTTSEYEKEKLNERLAKLSDGVAVLKVGGTSDVEVNEKKDRVTDALNATRAAVEEGIVLGGGCALLRCIPALDSLTPANEDQKIGIEIIKRTLKIPAMTIAKNAGVEGSLIVEKIMQSSSEVGYDAMAGDFVNMVEKGIIDPTKVVRTALLDAAGVASLLTTAEVVVTEIPKEEKDPGMGAMGGMGGGMGGGMF
**Q.** For B2, which “Difference log2” value (HaCat cell extract preys; bait DLG1_1 PDZ vs MBP) is on record?
**A.** The value was 6.29.

**Q.** What about the “Ratio DLG1_1/MBP” value (HaCat cell extract preys; bait DLG1_1 PDZ, fold change of prey) of the same molecule?
**A.** Its value is 78.233.

**Q.** And the Ratio (HeLa cell extract preys; bait TX1BP3 PDZ vs MBP control)?
**A.** Its Ratio is 104.688.

**Q.** And the Difference (HeLa cell extract preys; bait TX1BP3 PDZ vs MBP control)?
**A.** The Difference was 6.71.

B3: DARS1 (protein, UniProt P14868 1-501, looked up)
Aspartate--tRNA ligase, …: MPSASASRKSQEKPREIMDAAEDYAKERYGISSMIQSQEKPDRVLVRVRDLTIQKADEVVWVRARVHTSRAKGKQCFLVLRQQQFNVQALVAVGDHASKQMVKFAANINKESIVDVEGVVRKVNQKIGSCTQQDVELHVQKIYVISLAEPRLPLQLDDAVRPEAEGEEEGRATVNQDTRLDNRVIDLRTSTSQAVFRLQSGICHLFRETLINKGFVEIQTPKIISAASEGGANVFTVSYFKNNAYLAQSPQLYKQMCICADFEKVFSIGPVFRAEDSNTHRHLTEFVGLDIEMAFNYHYHEVMEEIADTMVQIFKGLQERFQTEIQTVNKQFPCEPFKFLEPTLRLEYCEALAMLREAGVEMGDEDDLSTPNEKLLGHLVKEKYDTDFYILDKYPLAVRPFYTMPDPRNPKQSNSYDMFMRGEEILSGAQRIHDPQLLTERALHHGIDLEKIKAYIDSFRFGAPPHAGGGIGLERVTMLFLGLHNVRQTSMFPRDPKRLTP
**Q.** With B3 as the molecule, how does the “Difference log2” value (HaCat cell extract preys; bait SCRIB_2 PDZ vs MBP) read?
**A.** Its value is 3.605.

**Q.** And the “Ratio SCRIB_2/MBP” value (HaCat cell extract preys; bait SCRIB_2 PDZ, fold change of prey)?
**A.** The value was 12.1719.

B4: SFPQ (protein, UniProt P23246 1-707, looked up)
Splicing factor, proline- and …: MSRDRFRSRGGGGGGFHRRGGGGGRGGLHDFRSPPPGMGLNQNRGPMGPGPGQSGPKPPIPPPPPHQQQQQPPPQQPPPQQPPPHQPPPHPQPHQQQQPPPPPQDSSKPVVAQGPGPAPGVGSAPPASSSAPPATPPTSGAPPGSGPGPTPTPPPAVTSAPPGAPPPTPPSSGVPTTPPQAGGPPPPPAAVPGPGPGPKQGPGPGGPKGGKMPGGPKPGGGPGLSTPGGHPKPPHRGGGEPRGGRQHHPPYHQQHHQGPPPGGPGGRSEEKISDSEGFKANLSLLRRPGEKTYTQRCRLFVGNLPADITEDEFKRLFAKYGEPGEVFINKGKGFGFIKLESRALAEIAKAELDDTPMRGRQLRVRFATHAAALSVRNLSPYVSNELLEEAFSQFGPIERAVVIVDDRGRSTGKGIVEFASKPAARKAFERCSEGVFLLTTTPRPVIVEPLEQLDDEDGLPEKLAQKNPMYQKERETPPRFAQHGTFEYEYSQRWKSLDEMEKQQREQVEKNMKDAKDKLESEMEDAYHEHQANLLRQDLMRRQEELRRMEELHNQEMQKRKEMQLRQEEERRRREEEMMIRQREMEEQMRRQREESYSRMGYMDPRERDMRMGGGGAMNMGDPYGSGGQKFPPLGGGGGIGYEANPGVPPATMSGSMMGSDMRTERFGQGGAGPVGGQGPRGMGPGTPAGYGRGREEYEGPNKKPRF
**Q.** For B4, which Ratio (HeLa cell extract preys; bait DLG1_1 PDZ vs MBP control) is on record?
**A.** Its Ratio is 33.0339.

**Q.** What about the Difference (HeLa cell extract preys; bait DLG1_1 PDZ vs MBP control) of the same molecule?
**A.** Its Difference is 5.046.

**Q.** What about the Difference (HeLa cell extract preys; [1]) of the same molecule?
**A.** Its Difference is 5.287.

**Q.** And the Ratio (HeLa cell extract preys; [2])?
**A.** Its Ratio is 39.0318.

B5: FUS (protein, UniProt P35637 1-526, looked up)
RNA-binding protein FUS: MASNDYTQQATQSYGAYPTQPGQGYSQQSSQPYGQQSYSGYSQSTDTSGYGQSSYSSYGQSQNTGYGTQSTPQGYGSTGGYGSSQSSQSSYGQQSSYPGYGQQPAPSSTSGSYGSSSQSSSYGQPQSGSYSQQPSYGGQQQSYGQQQSYNPPQGYGQQNQYNSSSGGGGGGGGGGNYGQDQSSMSSGGGSGGGYGNQDQSGGGGSGGYGQQDRGGRGRGGSGGGGGGGGGGYNRSSGGYEPRGRGGGRGGRGGMGGSDRGGFNKFGGPRDQGSRHDSEQDNSDNNTIFVQGLGENVTIESVADYFKQIGIIKTNKKTGQPMINLYTDRETGKLKGEATVSFDDPPSAKAAIDWFDGKEFSGNPIKVSFATRRADFNRGGGNGRGGRGRGGPMGRGGYGGGGSGGGGRGGFPSGGGGGGGQQRAGDWKCPNPTCENMNFSWRNECNQCKAPKPDGPGGGPGGSHMGGNYGDDRRGGRGGYDRGGYRGRGGDRGGFRGGRGGGDRGGFGPGKMDSRGEHRQDRRERPY
**Q.** Which results are given for B5?
**A.** Difference (HeLa cell extract preys; [1]): 4.68; Ratio (HeLa cell extract preys; [2]): 25.6321

B6: CAVIN1 (protein, UniProt Q6NZI2 1-390, looked up)
Caveolae-associated protein 1: MEDPTLYIVERPLPGYPDAEAPEPSSAGAQAAEEPSGAGSEELIKSDQVNGVLVLSLLDKIIGAVDQIQLTQAQLEERQAEMEGAVQSIQGELSKLGKAHATTSNTVSKLLEKVRKVSVNVKTVRGSLERQAGQIKKLEVNEAELLRRRNFKVMIYQDEVKLPAKLSISKSLKESEALPEKEGEELGEGERPEEDAAALELSSDEAVEVEEVIEESRAERIKRSGLRRVDDFKKAFSKEKMEKTKVRTRENLEKTRLKTKENLEKTRHTLEKRMNKLGTRLVPAERREKLKTSRDKLRKSFTPDHVVYARSKTAVYKVPPFTFHVKKIREGQVEVLKATEMVEVGADDDEGGAERGEAGDLRRGSSPDVHALLEITEESDAVLVDKSDSD
**Q.** For B6, which “Difference log2” value (HaCat cell extract preys; bait SNX27 PDZ vs MBP) is on record?
**A.** The value was 7.364.

**Q.** And the “Ratio SNX27/MBP” value (HaCat cell extract preys; fold change of prey)?
**A.** The value was 164.68.

Reference: PMC9482650, “Quantitative fragmentomics allow affinity mapping of interactomes” (Nature Communications, 2022)
